Results as given in patent publication US20260124303A1 (MINK THERAPEUTICS, published 2026).

T1: human FAP (fibroblast activation protein) (human, UniProt Q12884 26-760, limits assumed)
T1 construct: Protein immobilised on the CM5 chip or premixed with Fab in SPR; also called huFAP; hFAP
T1 sequence: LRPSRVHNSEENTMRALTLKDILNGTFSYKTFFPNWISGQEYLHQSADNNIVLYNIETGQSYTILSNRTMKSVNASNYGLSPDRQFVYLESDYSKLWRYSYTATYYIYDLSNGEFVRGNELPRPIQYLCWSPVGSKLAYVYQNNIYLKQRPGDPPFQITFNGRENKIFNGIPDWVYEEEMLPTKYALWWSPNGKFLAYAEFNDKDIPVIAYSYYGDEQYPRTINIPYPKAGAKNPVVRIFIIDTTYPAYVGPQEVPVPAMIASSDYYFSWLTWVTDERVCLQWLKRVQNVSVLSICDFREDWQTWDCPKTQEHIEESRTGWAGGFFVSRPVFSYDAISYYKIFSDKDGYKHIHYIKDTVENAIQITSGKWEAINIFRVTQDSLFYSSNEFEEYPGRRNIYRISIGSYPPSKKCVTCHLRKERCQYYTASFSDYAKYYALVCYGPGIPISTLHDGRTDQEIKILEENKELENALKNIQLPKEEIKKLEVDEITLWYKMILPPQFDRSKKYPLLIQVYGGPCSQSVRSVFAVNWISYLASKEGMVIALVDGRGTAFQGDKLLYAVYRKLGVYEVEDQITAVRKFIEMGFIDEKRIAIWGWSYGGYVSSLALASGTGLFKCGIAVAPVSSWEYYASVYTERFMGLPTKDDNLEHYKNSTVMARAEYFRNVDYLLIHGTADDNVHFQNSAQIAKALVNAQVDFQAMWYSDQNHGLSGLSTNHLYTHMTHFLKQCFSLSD

T2: mouse FAP (mouse, UniProt P97321 26-761, limits assumed)
T2 construct: Protein immobilised on the CM5 chip in SPR
T2 sequence (looked up): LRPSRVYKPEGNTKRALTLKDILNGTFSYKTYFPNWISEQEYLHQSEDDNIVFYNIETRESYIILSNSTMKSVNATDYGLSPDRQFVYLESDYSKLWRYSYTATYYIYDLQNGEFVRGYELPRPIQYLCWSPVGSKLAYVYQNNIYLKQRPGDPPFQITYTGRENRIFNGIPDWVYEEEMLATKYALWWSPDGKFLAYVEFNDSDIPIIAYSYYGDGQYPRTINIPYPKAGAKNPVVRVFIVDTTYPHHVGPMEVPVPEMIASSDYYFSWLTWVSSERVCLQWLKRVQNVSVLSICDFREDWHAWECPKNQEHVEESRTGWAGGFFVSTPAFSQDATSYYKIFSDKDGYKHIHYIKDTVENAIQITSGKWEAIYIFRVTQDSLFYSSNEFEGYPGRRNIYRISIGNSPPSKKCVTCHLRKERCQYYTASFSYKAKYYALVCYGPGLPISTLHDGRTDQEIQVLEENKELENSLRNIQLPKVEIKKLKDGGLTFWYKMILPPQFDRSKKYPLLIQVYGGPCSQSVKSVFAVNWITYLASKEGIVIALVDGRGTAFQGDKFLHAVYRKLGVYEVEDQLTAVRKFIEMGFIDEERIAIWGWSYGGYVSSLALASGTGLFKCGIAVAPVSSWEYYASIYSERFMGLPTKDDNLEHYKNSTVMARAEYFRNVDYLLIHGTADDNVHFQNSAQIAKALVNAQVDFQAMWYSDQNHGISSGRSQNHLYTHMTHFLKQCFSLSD


Key:
[1] = molecular target: T1, human FAP (fibroblast activation …); assay: SPR (Biacore), human FAP immobilised on CM5 chip by amine coupling, Fab as analyte, 2-fold dilution series from 500 nM
Description: (§1) 2.5 μg/mL human FAP was immobilized to flow cells 1-4 on CM5 chip by amine coupling. […] 5 μg/mL mouse FAP was immobilized to flow cells 5-8 on CM5 chip by amine coupling. […] Regeneration was done with 2.5 mM NaOH, 1M NaCl.

[2] = molecular target: T2, mouse FAP; assay: SPR (Biacore), mouse FAP immobilised on CM5 chip by amine coupling, Fab as analyte, 2-fold dilution series from 500 nM
Description: as §1

[3] = molecular target: T3, human DPP4 (human, UniProt P27487 1-766); assay: IgG staining of HEK cells transiently expressing the construct
T3 construct: whole, on cells; Transiently expressed in HEK cells; also called hDPP4; dipeptidyl peptidase IV
From the text: The constructs were designed on the DPP4 backbone and different FAP fragments were introduced to replace the corresponding DPP4 fragment as shown in FIG. 13D. BFP was used as a marker of transfection and His-tag to confirm expression.
The constructs were transiently expressed in HEK cells and the different IgGs were used to stain the cells.

T3 sequence (P27487 whole entry): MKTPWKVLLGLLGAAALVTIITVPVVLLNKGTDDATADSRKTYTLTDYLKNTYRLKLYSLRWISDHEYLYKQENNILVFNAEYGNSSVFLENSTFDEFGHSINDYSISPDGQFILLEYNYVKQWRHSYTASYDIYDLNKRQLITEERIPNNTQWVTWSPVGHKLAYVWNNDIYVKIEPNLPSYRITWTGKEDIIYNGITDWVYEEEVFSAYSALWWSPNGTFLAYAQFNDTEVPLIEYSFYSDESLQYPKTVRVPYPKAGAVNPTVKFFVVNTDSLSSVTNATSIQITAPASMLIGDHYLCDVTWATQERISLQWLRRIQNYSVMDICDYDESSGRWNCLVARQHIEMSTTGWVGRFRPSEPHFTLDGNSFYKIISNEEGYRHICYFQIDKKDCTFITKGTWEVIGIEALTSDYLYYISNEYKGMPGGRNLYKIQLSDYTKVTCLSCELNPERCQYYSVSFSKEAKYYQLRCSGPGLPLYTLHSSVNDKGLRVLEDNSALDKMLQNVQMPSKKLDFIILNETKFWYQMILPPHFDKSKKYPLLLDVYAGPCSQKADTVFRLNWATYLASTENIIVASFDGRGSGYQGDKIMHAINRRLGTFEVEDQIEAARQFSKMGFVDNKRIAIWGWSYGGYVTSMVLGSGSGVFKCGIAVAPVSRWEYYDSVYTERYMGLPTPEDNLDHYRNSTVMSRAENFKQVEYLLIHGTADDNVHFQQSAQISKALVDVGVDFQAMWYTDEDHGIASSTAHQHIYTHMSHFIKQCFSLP

Kd [1] | Kd [2] | binding result [3] | Binder
757 nM | 330 nM |  | A07 Fab (Fab, V domains shown) VH: QVQLVQSGAEVKKPGSSVKVSCKASGGTFSSYAISWVRQAPGQGLEWMGGIIPIFGTANYAQKFQGRVTITADESTSTAYMELSSLRSEDTAVYYCASPRDCSSTSCYAGIDAFDIWGQGTMVTVSS VL: not shown
 |  | no binding | E07 IgG (antibody, V domains shown) VH: EVQLLESGGGLVQPGGSLRLSCAASGFTFKSYVMSWVRQAPGKGLEWVSAIVPSGGDTYYADSVKGRFTISRDNSKNTLYLQMNSLRAEDTAVYYCAKDYYGGWFDPWGQGTLVTVSS VL: not shown
